Legend:
[1] = target: GST-ErpB (Borrelia burgdorferi strain B31); experiment: SPR
[2] = target: GST-ErpQ (Borrelia burgdorferi strain B31); experiment: SPR

Binder	Kd [1] [nM]	Kd [2] [nM]
C1r enzyme (activated form of human C1r) (enzyme) chain 1: SIPIPQKLFGEVTSPLFPKPYPNNFETTTVITVPTGYRVKLVFQQFDLEPSEGCFYDYVKISADKKSLGRFCGQLGSPLGNPPGKKEFMSQGNKMLLTFHTDFSNEENGTIMFYKGFLAYYQAVDLDECASRSKSGEEDPQPQCQHLCHNYVGGYFCSCRPGYELQEDTHSCQAECSSELYTEASGYISSLEYPRSYPPDLRCNYSIRVERGLTLHLKFLEPFDIDDHQQVHCPYDQLQIYANGKNIGEFCGKQRPPDLDTSSNAVDLLFFTDESGDSRGWKLRYTTEIIKCPQPKTLDEFTIIQNLQPQYQFRDYFIATCKQGYQLIEGNQVLHSFTAVCQDDGTWHRAMPRCKIKDCGQPRNLPNGDFRYTTTMGVNTYKARIQYYCHEPYYKMQTRAGSRESEQGVYTCTAQGIWKNEQKGEKIPRCLPVCGKPVNPVEQRQR chain 2: IIGGQKAKMGNFPWQVFTNIHGRGGGALLGDRWILTAAHTLYPKEHEAQSNASLDVFLGHTNVEELMKLGNHPIRRVSVHPDYRQDESYNFEGDIALLELENSVTLGPNLLPICLPDNDTFYDLGLMGYVSGFGVMEEKIAHDLRFVRLPVANPQACENWLRGKNRMDVFSQNMFCAGHPSLKQDACQGDSGGVFAVRDPNTDRWVATGIVSWGIGCSRGYGFYTKVLNYVDWIKKEMEEED	100	97
C1s enzyme (activated form of human C1s) (enzyme) chain 1: EPTMYGEILSPNYPQAYPSEVEKSWDIEVPEGYGIHLYFTHLDIELSENCAYDSVQIISGDTEEGRLCGQRSSNNPHSPIVEEFQVPYNKLQVIFKSDFSNEERFTGFAAYYVATDINECTDFVDVPCSHFCNNFIGGYFCSCPPEYFLHDDMKNCGVNCSGDVFTALIGEIASPNYPKPYPENSRCEYQIRLEKGFQVVVTLRREDFDVEAADSAGNCLDSLVFVAGDRQFGPYCGHGFPGPLNIETKSNALDIIFQTDLTGQKKGWKLRYHGDPMPCPKEDTPNSVWEPAKAKYVFRDVVQITCLDGFEVVEGRVGATSFYSTCQSNGKWSNSKLKCQPVDCGIPESIENGKVEDPESTLFGSVIRYTCEEPYYYMENGGGGEYHCAGNGSWVNEVLGPELPKCVPVCGVPREPFEEKQR chain 2: IIGGSDADIKNFPWQVFFDNPWAGGALINEYWVLTAAHVVEGNREPTMYVGSTSVQTSRLAKSKMLTPEHVFIHPGWKLLEVPEGRTNFDNDIALVRLKDPVKMGPTVSPICLPGTSSDYNLMDGDLGLISGWGRTEKRDRAVRLKAARLPVAPLRKCKEVKVEKPTADAEAYVFTPNMICAGGEKGMDSCKGDSGGAFAVQDPNDKTKFYAAGLVSWGPQCGTYGLYTRVKNYVDWIMKTMQENSTPRED	3.9	4.5

Reference: doi:10.1101/2021.09.23.461563
